Article doi:10.1101/2024.07.30.605799 (bioRxiv, 2024)

B1: human CAD ATC domain bearing P2186S (domain or fragment, UniProt P27708 1917-2225, looked up)
chain: LLHSLVGQHILSVQQFTKDQMSHLFNVAHTLRMMVQKERSLDILKGKVMASMFYEVSTRTSSSFAAAMARLGGAVLSFSEATSSVQKGESLADSVQTMSCYADVVVLRHPQPGAVELAAKHCRRPVINAGDGVGEHPTQALLDIFTIREELGTVNGMTITMVGDLKHGRTVHSLACLLTQYRVSLRYVAPPSLRMPPTVRAFVASRGTKQEEFESIEEALPDTDVLYMTRIQKERFGSTQEYEACFGQFILTPHIMTRAKKKMVVMHPMSRVNEISVEVDSDPRAAYFRQAENGMYIRMALLATVLGRF
B2: human CAD dihydroorotase (DHO) domain, wild type (domain or fragment, UniProt P27708 1456-1846, looked up)
chain: MTSQKLVRLPGLIDVHVHLREPGGTHKEDFASGTAAALAGGITMVCAMPNTRPPIIDAPALALAQKLAEAGARCDFALFLGASSENAGTLGTVAGSAAGLKLYLNETFSELRLDSVVQWMEHFETWPSHLPIVAHAEQQTVAAVLMVAQLTQRSVHICHVARKEEILLIKAAKARGLPVTCEVAPHHLFLSHDDLERLGPGKGEVRPELGSRQDVEALWENMAVIDCFASDHAPHTLEEKCGSRPPPGFPGLETMLPLLLTAVSEGRLSLDDLLQRLHHNPRRIFHLPPQEDTYVEVDLEHEWTIPSHMPFSKAHWTPFEGQKVKGTVRRVVLRGEVAYIDGQVLVPPGYGQDVRKWPQGAVPQLPPSAPATSEMTTTPERPRRGIPGLPD
modifications: carboxylated lysine K1556
B3: human CAD DHO domain bearing H1687R (domain or fragment, UniProt P27708 1456-1846, looked up)
chain: MTSQKLVRLPGLIDVHVHLREPGGTHKEDFASGTAAALAGGITMVCAMPNTRPPIIDAPALALAQKLAEAGARCDFALFLGASSENAGTLGTVAGSAAGLKLYLNETFSELRLDSVVQWMEHFETWPSHLPIVAHAEQQTVAAVLMVAQLTQRSVHICHVARKEEILLIKAAKARGLPVTCEVAPHHLFLSHDDLERLGPGKGEVRPELGSRQDVEALWENMAVIDCFASDRAPHTLEEKCGSRPPPGFPGLETMLPLLLTAVSEGRLSLDDLLQRLHHNPRRIFHLPPQEDTYVEVDLEHEWTIPSHMPFSKAHWTPFEGQKVKGTVRRVVLRGEVAYIDGQVLVPPGYGQDVRKWPQGAVPQLPPSAPATSEMTTTPERPRRGIPGLPD
B4: human CAD DHO domain bearing S1538A (domain or fragment, UniProt P27708 1456-1846, looked up)
chain: MTSQKLVRLPGLIDVHVHLREPGGTHKEDFASGTAAALAGGITMVCAMPNTRPPIIDAPALALAQKLAEAGARCDFALFLGAASENAGTLGTVAGSAAGLKLYLNETFSELRLDSVVQWMEHFETWPSHLPIVAHAEQQTVAAVLMVAQLTQRSVHICHVARKEEILLIKAAKARGLPVTCEVAPHHLFLSHDDLERLGPGKGEVRPELGSRQDVEALWENMAVIDCFASDHAPHTLEEKCGSRPPPGFPGLETMLPLLLTAVSEGRLSLDDLLQRLHHNPRRIFHLPPQEDTYVEVDLEHEWTIPSHMPFSKAHWTPFEGQKVKGTVRRVVLRGEVAYIDGQVLVPPGYGQDVRKWPQGAVPQLPPSAPATSEMTTTPERPRRGIPGLPD
B5: human CAD DHO domain bearing W1581R (domain or fragment, UniProt P27708 1456-1846, looked up)
chain: MTSQKLVRLPGLIDVHVHLREPGGTHKEDFASGTAAALAGGITMVCAMPNTRPPIIDAPALALAQKLAEAGARCDFALFLGASSENAGTLGTVAGSAAGLKLYLNETFSELRLDSVVQWMEHFETRPSHLPIVAHAEQQTVAAVLMVAQLTQRSVHICHVARKEEILLIKAAKARGLPVTCEVAPHHLFLSHDDLERLGPGKGEVRPELGSRQDVEALWENMAVIDCFASDHAPHTLEEKCGSRPPPGFPGLETMLPLLLTAVSEGRLSLDDLLQRLHHNPRRIFHLPPQEDTYVEVDLEHEWTIPSHMPFSKAHWTPFEGQKVKGTVRRVVLRGEVAYIDGQVLVPPGYGQDVRKWPQGAVPQLPPSAPATSEMTTTPERPRRGIPGLPD
B6: human CAD DHO domain bearing S1538L (domain or fragment, UniProt P27708 1456-1846, looked up)
chain: MTSQKLVRLPGLIDVHVHLREPGGTHKEDFASGTAAALAGGITMVCAMPNTRPPIIDAPALALAQKLAEAGARCDFALFLGALSENAGTLGTVAGSAAGLKLYLNETFSELRLDSVVQWMEHFETWPSHLPIVAHAEQQTVAAVLMVAQLTQRSVHICHVARKEEILLIKAAKARGLPVTCEVAPHHLFLSHDDLERLGPGKGEVRPELGSRQDVEALWENMAVIDCFASDHAPHTLEEKCGSRPPPGFPGLETMLPLLLTAVSEGRLSLDDLLQRLHHNPRRIFHLPPQEDTYVEVDLEHEWTIPSHMPFSKAHWTPFEGQKVKGTVRRVVLRGEVAYIDGQVLVPPGYGQDVRKWPQGAVPQLPPSAPATSEMTTTPERPRRGIPGLPD
modifications: carboxylated lysine K1556

Target: the molecule itself
Assay: SEC

**Q.** With B1 as the protein, how does the “stoichiometry N” value read?
**A.** The value was 3.

Target: the molecule itself
Assay: SEC
Remark: another data set of the same source

**Q.** How did the “stoichiometry N” value turn out when B2 was run?
**A.** Its value is 2.

**Q.** B3 was tested. Which “stoichiometry N” value did it give?
**A.** Its value is 2.

**Q.** How did the “stoichiometry N” value turn out when B4 was run?
**A.** Its value is 2.

**Q.** Which “stoichiometry N” value does the source give for B5 here?
**A.** Its value is 2.

**Q.** For B6, which “stoichiometry N” value is on record?
**A.** Its value is 2.
